Reference: the supplement of paper PMC12855868

B1: library; numbered along this chain (parent)
chain: MAAAGGARLLRAASAVLGGPAGRWLHHAGSRAGSSGLLRNRGPGGSAEASRSLSVSARARSSSEDKITVHFINRDGETLTTKGKVGDSLLDVVVENNLDIDGFGACEGTLACSTCHLIFEDHIYEKLDAITDEENDMLDLAYGLTDRSRLGCQICLTKSMDNMTVRVPETVADARQSIDVGKTS

Variants of: B1
Assay: scaled log2 fold change in cell abundance, elesclomol vs control (0 = silent mean, 1 = nonsense mean) (scaled log2 ratio); higher = higher viability under elesclomol (loss of FDX1 cuproptosis function)
Conditions: glucose 10 mM
Protocol: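 Deep mutational scan of full-length human FDX1: a pooled saturation-mutagenesis ORF library (every residue 2-184 mutated to all 19 amino acids plus stop, and silent codons where available) was expressed by lentivirus in FDX1-knockout ABC1 (14 days) or HEK293T (11 days) cells grown with elesclomol (ES) or DMSO control. Variant abundance came from ORF sequencing. The log2 fold change (ES vs control, mean of duplicates) was centred on the silent-variant mean (0) and scaled to the nonsense-variant mean (1). Higher values mean greater viability under ES, i.e. loss of FDX1 function in cuproptosis.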

[1] = with ABC1 FDX1 KO, elesclomol 5 nM, 14 days
[2] = with HEK293T FDX1 KO, elesclomol 40 nM, 11 days
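Further: variant abundance is its share of total variant reads in each endpoint sample, from next-generation sequencing of the integrated ORF PCR-amplified out of genomic DNA.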

Row | Variant | scaled log2 fold change [1] | scaled log2 fold change [2]
1 | MAHAGGARLLRAASAVLGGPAGRWLHHAGSRAGSSGLLRNRGPGGSAEASRSLSVSARARSSSEDKITVHFINRDGETLTTKGKVGDSLLDVVVENNLDIDGFGACEGTLACSTCHLIFEDHIYEKLDAITDEENDMLDLAYGLTDRSRLGCQICLTKSMDNMTVRVPETVADARQSIDVGKTS [A3H] | 0.204 | -0.0465
2 | MAFAGGARLLRAASAVLGGPAGRWLHHAGSRAGSSGLLRNRGPGGSAEASRSLSVSARARSSSEDKITVHFINRDGETLTTKGKVGDSLLDVVVENNLDIDGFGACEGTLACSTCHLIFEDHIYEKLDAITDEENDMLDLAYGLTDRSRLGCQICLTKSMDNMTVRVPETVADARQSIDVGKTS [A3F] | -0.338 | 0.0034
3 | MACAGGARLLRAASAVLGGPAGRWLHHAGSRAGSSGLLRNRGPGGSAEASRSLSVSARARSSSEDKITVHFINRDGETLTTKGKVGDSLLDVVVENNLDIDGFGACEGTLACSTCHLIFEDHIYEKLDAITDEENDMLDLAYGLTDRSRLGCQICLTKSMDNMTVRVPETVADARQSIDVGKTS [A3C] | 0.227 | 0.756
4 | MAEAGGARLLRAASAVLGGPAGRWLHHAGSRAGSSGLLRNRGPGGSAEASRSLSVSARARSSSEDKITVHFINRDGETLTTKGKVGDSLLDVVVENNLDIDGFGACEGTLACSTCHLIFEDHIYEKLDAITDEENDMLDLAYGLTDRSRLGCQICLTKSMDNMTVRVPETVADARQSIDVGKTS [A3E] | 0.299 | 1.21
5 | MAGAGGARLLRAASAVLGGPAGRWLHHAGSRAGSSGLLRNRGPGGSAEASRSLSVSARARSSSEDKITVHFINRDGETLTTKGKVGDSLLDVVVENNLDIDGFGACEGTLACSTCHLIFEDHIYEKLDAITDEENDMLDLAYGLTDRSRLGCQICLTKSMDNMTVRVPETVADARQSIDVGKTS [A3G] | 0.242 | -0.188
6 | MADAGGARLLRAASAVLGGPAGRWLHHAGSRAGSSGLLRNRGPGGSAEASRSLSVSARARSSSEDKITVHFINRDGETLTTKGKVGDSLLDVVVENNLDIDGFGACEGTLACSTCHLIFEDHIYEKLDAITDEENDMLDLAYGLTDRSRLGCQICLTKSMDNMTVRVPETVADARQSIDVGKTS [A3D] | 0.186 | 0.572
7 | MWAAGGARLLRAASAVLGGPAGRWLHHAGSRAGSSGLLRNRGPGGSAEASRSLSVSARARSSSEDKITVHFINRDGETLTTKGKVGDSLLDVVVENNLDIDGFGACEGTLACSTCHLIFEDHIYEKLDAITDEENDMLDLAYGLTDRSRLGCQICLTKSMDNMTVRVPETVADARQSIDVGKTS [A2W] | -0.098 | -0.566
8 | MYAAGGARLLRAASAVLGGPAGRWLHHAGSRAGSSGLLRNRGPGGSAEASRSLSVSARARSSSEDKITVHFINRDGETLTTKGKVGDSLLDVVVENNLDIDGFGACEGTLACSTCHLIFEDHIYEKLDAITDEENDMLDLAYGLTDRSRLGCQICLTKSMDNMTVRVPETVADARQSIDVGKTS [A2Y] | -0.115 | -0.115
